Assay in all cases: EMSA
Settings in all cases: 10 mM Tris-HCl pH 7.4, 50 mM KCl, 1 mM DTT, 100 mg/mL BSA (so in the source), 5 ng/mL poly[dI-dC], 200 uM c-di-GMP, 30 C 20 min; 5% native PAGE with 50 uM c-di-GMP …
On the technique in general: A gel shift assay detects complexes by their altered migration in electrophoresis.

Series [1] deals with T1, MrkH-8xHis (Klebsiella pneumoniae AJ218) (UniProt G3FT00).
T1 sequence: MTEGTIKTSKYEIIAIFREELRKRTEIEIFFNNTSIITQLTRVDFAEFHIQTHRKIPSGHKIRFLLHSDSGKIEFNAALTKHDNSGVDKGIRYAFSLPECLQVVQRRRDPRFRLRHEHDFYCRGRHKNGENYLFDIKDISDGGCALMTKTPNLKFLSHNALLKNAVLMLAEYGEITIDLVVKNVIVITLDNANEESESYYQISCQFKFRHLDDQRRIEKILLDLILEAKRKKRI

Series [2] addresses T2, MrkH 15AS16-8xHis internal_change (Klebsiella pneumoniae AJ218) (UniProt G3FT00).
T2 sequence: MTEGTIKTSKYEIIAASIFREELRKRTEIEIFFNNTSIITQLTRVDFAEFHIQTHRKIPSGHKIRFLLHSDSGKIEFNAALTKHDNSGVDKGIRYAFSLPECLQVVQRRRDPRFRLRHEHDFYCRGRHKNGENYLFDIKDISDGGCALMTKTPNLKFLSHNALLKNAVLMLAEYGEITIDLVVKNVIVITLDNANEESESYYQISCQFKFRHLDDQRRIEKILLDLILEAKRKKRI

Series [3] concerns the target T3, MrkH 202AS203-8xHis internal_change (Klebsiella pneumoniae AJ218) (UniProt G3FT00).
T3 sequence: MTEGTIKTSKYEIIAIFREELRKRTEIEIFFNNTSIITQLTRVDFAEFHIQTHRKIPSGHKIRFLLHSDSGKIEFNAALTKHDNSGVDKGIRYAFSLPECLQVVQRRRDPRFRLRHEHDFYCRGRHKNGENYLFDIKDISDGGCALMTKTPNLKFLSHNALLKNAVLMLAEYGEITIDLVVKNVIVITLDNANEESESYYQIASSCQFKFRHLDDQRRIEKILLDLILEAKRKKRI

The target in series [4] is T4, MrkH 217AS218-8xHis internal_change (Klebsiella pneumoniae AJ218) (UniProt G3FT00).
T4 sequence: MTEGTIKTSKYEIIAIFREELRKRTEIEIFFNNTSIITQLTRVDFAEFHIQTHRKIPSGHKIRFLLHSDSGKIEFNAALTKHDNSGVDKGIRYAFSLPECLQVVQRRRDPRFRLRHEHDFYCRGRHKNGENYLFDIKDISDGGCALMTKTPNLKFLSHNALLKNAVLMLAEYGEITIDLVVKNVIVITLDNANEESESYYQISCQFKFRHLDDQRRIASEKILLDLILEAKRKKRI

Series [5] concerns the target T5, MrkH 39AS40-8xHis internal_change (Klebsiella pneumoniae AJ218) (UniProt G3FT00).
T5 sequence: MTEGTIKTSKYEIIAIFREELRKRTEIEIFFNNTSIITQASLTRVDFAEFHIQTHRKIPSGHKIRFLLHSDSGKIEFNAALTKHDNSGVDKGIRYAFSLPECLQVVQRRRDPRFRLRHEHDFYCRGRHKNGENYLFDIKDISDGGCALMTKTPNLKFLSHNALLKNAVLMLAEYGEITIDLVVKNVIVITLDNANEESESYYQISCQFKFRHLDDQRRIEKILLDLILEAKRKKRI

Data on four sequences can be found in article PMC3828302.

For “GCTGTTGCGGTCACTTTCTCTCGCTCTGGCGTTAGGCTTGCTGCGCTGTAAACAACCACCCTCGCGTTTTCATCTATCAATGACTGTTGCAGCATAGTCGATGGTTATCTGTTATATAACTTAATGAAACGTGAACAAATGTATATTTGTCGGCGAATAAATAGCATTCTTTGACGCCGATAGCACCAGCGAACTTATATTTTTAGGTTCGTTACCTGACGCCTTAAATATTGCGGCTCCCGGTCAGTCGAAGATTCTATTAGCAGTGGC (double strand) [mrkA fragment, UP mutation]”, the binding entry in series [1] was “binds”.
Same read-out and setting: under “GCTGTTGCGGTCACTTTCTCTCGCTCTGGCGTTAGGCTTGCTGCGCTGTAAACAACCACCCTCGCGTTTTCATCTCCCAATGACTGTTTATTAATAGTCGATGGTTATCTGTTATATAACTTAATGAAACGTGAACAAATGTATATTTGTCGGCGAATAAATAGCATTCTTTGACGCCGATAGCACCAGCGAACTTATATTTTTAGGTTCGTTACCTGACGCCTTAAATATTGCGGCTCCCGGTCAGTCGAAGATTCTATTAGCAGTGGC (double strand) [mrkA fragment, MrkH box mut-5]” stands “binds more weakly”; under “GCTGTTGCGGTCACTTTCTCTCGCTCTGGCGTTAGGCTTGCTGCGCTGTAAACAACCACCCTCGCGTTTTCATCTAAGAATGACTGTTTATTAATAGTCGATGGTTATCTGTTATATAACTTAATGAAACGTGAACAAATGTATATTTGTCGGCGAATAAATAGCATTCTTTGACGCCGATAGCACCAGCGAACTTATATTTTTAGGTTCGTTACCTGACGCCTTAAATATTGCGGCTCCCGGTCAGTCGAAGATTCTATTAGCAGTGGC (double strand) [mrkA fragment, MrkH box mut-6]”, “binds more weakly”.
Regarding “GCTGTTGCGGTCACTTTCTCTCGCTCTGGCGTTAGGCTTGCTGCGCTGTAAACAACCACCCTCGCGTTTTCATCTATCAATGACTGTTTATTAATAGTCGATGGTTATCTGTTATATAACTTAATGAAACGTGAACAAATGTATATTTGTCGGCGAATAAATAGCATTCTTTGACGCCGATAGCACCAGCGAACTTATATTTTTAGGTTCGTTACCTGACGCCTTAAATATTGCGGCTCCCGGTCAGTCGAAGATTCTATTAGCAGTGGC (double strand) [mrkA promoter fragment, wild type]”, the binding result in series [2] was “binds”; in series [3], “no binding”; in series [4], “no binding”; in series [5] it was “binds”; in series [1], “binds”.
